Reference: the nanobody polyreactivity screen of Harvey et al. (2022)

Assay: yeast display, Sf9 membrane polyspecificity reagent, FACS + sequencing; frameworks hold sequencing errors
Method in brief: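 Nanobodies from a synthetic yeast display library (Saccharomyces cerevisiae BJ5465), induced 36–48 hours with galactose, were stained 1 hour at 4 °C with 10% biotinylated, detergent-solubilized Sf9 membrane reagent, enriched on streptavidin microbeads, then FACS-sorted. Anti-HA (expression) and streptavidin (reagent binding) fluorescence set low and high (top ~1%) gates. Polyreactivity labels come from the gate of origin. Genes were colony-PCR amplified, MiSeq 2 × 250 sequenced and filtered by CDR length.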

Sequence	polyreactivity (PSR sort gate)
QVQLVESGGGLVQAGGSLRLSCAASGSIFVKNVMGWYRQAPGKERELVAAISSSGGRTYYADSVKGRFTISRDNAKNTVYLQMNSLKPEDTAVYYCNKAYPGRRDGSYDYWGQGTQVTVSS	high polyreactivity
QVQLVESGGGLVQAGGSLRLSCAASGSIFPWNAMGWYRQAPGKERELVAAISYSGTRTYYADSVKGRFTISRDNAKNTVYLQMNSLKPVDTAVYYCNARGYTRSYVKYDYWGQGTQVTVSS	high polyreactivity
QVQLVESGGGLVQAGGSLRLSCAASGLTLDKYAMGWYRPAPRKERELVAGINSRGGSTYADSVKGRFTISRDNAKNTVYLQMNSMKPEDTAVYYCAADGKVQGGYYWGQGTQVTVSS	high polyreactivity
QVQLVESGGGLVQAGGSIRLSCAASGSTFRVYAMGWYRQAPGKERELVAAISSSGGITYYADSVKGRFTISRDNAKNTVYLQMNSLKPEDTAVYYCAKGTVIHVLYDYWGQGTQVTVSS	low polyreactivity
QVQLVESGGGLVQAGGSLRLSCAASGFTFYYNAMGWYRQAPGKERELVASISRGTSTNYADSVKGRFTISRDNAKNTVYLQMNSLKPEDTAVYYCAAKSYSDYDYWGQGTQVTVSS	low polyreactivity
QVQLVESGGGLVQAGGSLRLSCAASGIIFGRYAMGWYRHAPGKERELVAAISTSGCSTYYADSVKGRFTISRDNAKTTVYLQMNSLKPEDTAVYYCAARHREAQRRYDYWGQGTQVTVSS	high polyreactivity
QVQLVDSGGGLVQAGGSLRLSCAASGRTIPYYAMGWYRQAPGKERELVAAISSSGGRTYYADSVKGRFTISRDNAKNTVYLQMNSLKPEDTAVYYCNVDAWYPYQGFLVGYYYWGQGTQVTVSS	low polyreactivity
QVQLVESGGGLVQAGGSLRLSCAASGSTFPVYAMGWYRQAPGKERELVAAINSGVSTNYADSVKGRFTISRDNAKNTVYLQMNSLKPEDTAVYYCNTSYVGYPDLGINYEFDYWGQGTQVTVSS	low polyreactivity
QVQLVESGGGLVQAGGSLRLSCAASGSIFIYYAMGWYRQAPGKERELVAAISWSGGDTYYADSVKGRFTISRDNAKNTVYLQMNSLKPEDTAVYYCNADYDPYYPYTAWDTVLTHDEYWGQGTQVTVSS	low polyreactivity
QVQLVESGGGLVQAGGILRLSCAASGSIFEYNAMGRYRKPPGKERELCASISWSGGSTYYADSVKGRYTISRDNAKNTVYLQMYSLKPEATAVYYCNVRKWSRWFRESYYWGQGTQVTVSS	high polyreactivity
QVQLVESGGGLVQAGGSLRLSCAASGSTFLRYAMGWARQAPGKERELVARISGGGTTYYADSVKGRFTISRDNAKNTVYLQMNSLKPEDTAVYYCAARAIYWSRYDYWGQGTQVTVSS	high polyreactivity
QVQLVESGGGLVQAGGSLRLSCAASGRTFRSYAMGWYRQAPGKERELVAAISRGGRTNYADSVKGRFTISRDNAKNTVYLQMNSLKPEDTAVYYCAARLPYLGGYDYWGQGTQVTVSS	high polyreactivity
QVQLVESGGGLVQAGGSLRLSCAASGFTFTYNAMGWYRQAPGKERELVAAITANGGGTNYADSVKGRFTISRDNEKNTVYLQMNSLKPEDTAVYYCAATIVVAVFESLGFYWYTEDNYWGQGTQVTVSS	low polyreactivity
QVQLVESGGGLVQAGGSLRLSCSASGGIFSAYAMGWYRQSPGKERELVAAISRTGGSTYYADSVKGRFTISRDNAKNTVYLQMNSLKPEDTAVYYCNAVYRRYPEFDYWGQGTQVTVSS	high polyreactivity
QVQLVESGGGLVQAGGSLRLSCAASGFIFSRYAMGWYRQAPGKERELVASISWGGGSTSYADSVKGRFTISRDNAKNTVYLQMNSLKPEDTAVYYCNARVRSHRFNYWGQGTQVTVSS	high polyreactivity
QVQLVESGGGLVQAGGSLRLSCAASGLIFYYYAMGWYRQAPGKEREFVAAISRRGGSTYYADSVKGRFTISRDNAKNTVYLHMNSLKPEDTAVYYCAAKSGSFVHGGYQTPVYGSDYWGQGTQVTVSS	high polyreactivity
QVQLVESGGGLVQAGGSLRLSCAASGRIFAGYAMGWDRQAPGKERELVATISSGGSTYYADSVKGRFTISRDNAKNTVYLQMNSLKPEDTAVYYCAAEYGTRQYSSYYKLFNYWGQGTQVTVSS	low polyreactivity
QVHLQESGDGLVQPVGSQRLSCAASGYISGNYYMGWYRQAPGTERELVAGIDAFGSSTNYADCVKGRFTISRYNAKNSVYLQMYRLKPEDTAVYYCAAPPDGDRLFSYWGQGTQVTVSS	low polyreactivity
QVQLVESGGGLVQAGGSLRLSCAASGYTFPYYTMGWYRQAPGKERELVATITRRGDSTYYADSVKGRFTLSRDNAKNTVYLQMNSLKPEDTAVYYCNTASYGRHQFRKSSKMDYWGQGTQVTVSS	high polyreactivity
QVQLVDSGGGLVQAGGSLRLTCDASGSTFYVNFMGWYRQAPGKERELDALIDWRGGSTYYADSVKGRFTISRDNAKNTVYLQMNSLKPEDTAVYYCKKDAQFYYKLPYYKERDWGQGTQVTVSS	low polyreactivity
QFQHVDSGGGLVQAGGSLRLSCADSGYTFPLYDMGRYRKAPGKVSELVADINIGGASTYYADSVKGRLTISRDNSKNSVYLQMNSLKPEDTAVYYCAKEYYDGYFPTFDYDYWGQGTQVTVSS	low polyreactivity
QVQLVESGGGLVQAGGSLRKTCAASVRIFHYYAMGWYRQAPGKERELVAAINKSGGRTYYADSVKGRFTISRDNAKNTFYLQMNSLKPEDTAVYYCAAQDGYLGQGTQVTVSS	high polyreactivity

Sequence	polyreactivity (PSR sort gate)
QVQLVESGGGLVQAGGSLRLSCAASGRNLPSYAMGWYRQAPGKERELVAAISGSGGRTYYSDSVKGRFTISRDNAKNTVYLQMNSLKQEDTAVYYCAARQDDYGKINYYWGQGTQVTVSS	high polyreactivity
QVQLVESGGGLVQAGGSLRLSCAASGSTFPPNAMGWYRQAPGKESELVAAISFSSGRTYYADSVKGRFTISRDNAKNTVYLQMNSLKPEDTAVYYCAADHGYWGQGTQVTVSS	low polyreactivity
QVQLVESGGGLVQAGGSLRLSCASSGSTFPYNAMGWYRQAPGKERELVAAITSSGRTNYADSVKGRFTISRDNAKNTVYLQMNSLKPEDTAVYYCAAGRWYAHRVDYWGQGTQVTVSS	low polyreactivity
QVQLVESGGGLVQAGGNLRLSCAASGNIFYVYAMGWYRQAPGKERELVAAITRSGGRTYYADSVKGRFTISRDNAKNTVYLQMTSLKPEDTAVYYCAADRGVTRQKMDYWGQGTQVTVSS	low polyreactivity
QVQLVESGGGLVQAGGSLRLSCAASGRTFFVYAMGWYRQAPGKERELVASITLSGGSTYYADSVKGRFTISRDNAKNTVYLQMHSLKPEDTAVYYCAKGWSRDNDREREDEYWGQGTQVTVSS	low polyreactivity
QVQLVESGGGLVQAGGSLRLSCAASGSTFNGYAMGWYRQAPGKERELVAAISSDGGSTYYADSVKGRFTISRDNAKNTVYLQMNSLKPEYTAVYYCAALVYVSGYGYYYWGQGTQVTVSS	high polyreactivity
QVQLVESRGGLVQAGGSLRLSCAASGRTFDRNAMGWYRQAPGKERQFVAAITSRVGSTYYADSVKGLFTISRDTAKNTVYLQMNSQKPEDTAVYDCNKRYFGEQTWVGGDSWGQGTLVTVSS	high polyreactivity
KVQLVESGGGLVQAGGSLRLSRAASGFTFGSYAMGWYRQAPGKERELVAAITRRGGSTRYADSVKGRFTISRDNAKNTVYLQMNSLKPEDTAVYYCAAKHGRNYAANALYGYWGQGTQVTVSS	high polyreactivity
QVQLVESGGGLVQAGGSLRLSCAASGSTFLYYAMGWYRQEPGKEREFVASISGSGGSTNYADSVKGRFTISRDNAKNTVYLQMNSLKPEDTAVYYCAKEYVTEFQGYYYWGQGTQVTVSS	low polyreactivity
QVQLVESGGGLVQAGGSLRLSCAASGRTWFYAMGWYRQAPGKERELVAVISRSGASTNYADSVKGRFTISRDNAKNTVYLQMNSLKPEDTAVYYCAAGWRYRGGYWYPRLEYGYWGQGTQVTVSS	high polyreactivity
QVQLVESGAGLVQAGGSLRLSCAASGYAMGWYRQAPGKERELVAAITSNGGRTYYADSVKGRFTISRDYAKNTVYLEMNSLKPEDTAVYYCATRTGPHYKTRWTYDQGYWGQGTQVTVSS	low polyreactivity
QVQLVESGGGLVQAGGSLRLSCAASGITYPRYTMGWYRQAPGKERQLVAAITRRSGSTNYADSVKGRITISRDNAKNTVYLQMNSLKPEDTAVYYCAAVVQVYDRGYHVIAKYYYWGQGTQVTVSS	high polyreactivity
QVQLVESGGGLVQAGGSLRLSCAASGLIFYYYAMGWYRQAPGKERELVAAITSDDRTYYADSVKGRFTISRDNAKNTFYLQMNSLKPEDTAVYYCAARYHGYLPQYRKYGYGYWGQGTQVTVSS	high polyreactivity
QVQLVESGGGLVQAGGSLRLSCAASGYIFLAYAMGWYRQAPGKERELVADNTYADSVKGRFTISRDNAKNTVYLQMNSLKPEDTAVYYCNADEVYDEYSYDYWGQGTQVTVSS	low polyreactivity
QVQLVESGGGLVQAGGSLRLSCAASGSTLVGYVMGWYRQAPGKERELVATISRSGGSTYYADSVKGRFTISRDNAKNTVYLQMNSLKPEDTAVYYCATDLLNNVDYDYWGQGTQVTVSS	low polyreactivity
QVQLVESGGGLVQAGGSLRLSCAASGSTFPYYAMGWYRQAPGKERELVAAISGSGGTTYYADSVKGRFTISRDNAKNTVYLQMNILKPEDTAVYYCAAEASHYYYNAYPSYGGSDYWGQGTQVTVSS	low polyreactivity
QVQLVESGGGLVQAGGSLRLSCAASGSIFISYAMGWYRQAPGKARELVAAISRSGGSTYYADSVKGRFTISRDNAKNTVYLQMNSLKPEDTAVYYCAARSYPGKAGMGYWGQGTQVTVSS	high polyreactivity
QVQLVESGGGLVQAGGSLRLSFAASGSIFYYYAMGWYRQAPGKERELVAAINYSGGSTYADSVKGRFTISLDNAKNTVYLQMNSLKPEDTAVYYCATRLYGYWPYGFEYWGQGTQVTVSS	low polyreactivity
QVQLVESGGGLVQAGGSLRLSCAASGSIFHYYAMGWYRPAPGKERELVAAISWSGGRTYYADSVKGRFTISRDNAKNTVYLQMNSLKPEDTAVYYCAAARGESYEFYSWGQGTQVTVSS	high polyreactivity
QVQLVESGGGLVQAGGSLRLSCAASGRTYHQYAMGWYRQAPGKERELVARITSGGRTNYADSVKGRFTISRDNAKNTVYLHMNSLKPEDTAVYYCPAASSYYFYISSKLDYWGQGTQVTVSS	high polyreactivity
QVQRVESGGGLVQAGGSLRLSCAASGLTFNNNAMGCYRQAPGTARELVAAISRTAVRTYYADSVKGRFTISRDNAKNTVYLQMNSLKPEDTAVYYCNGVSYYGGYPVTYDYWGQGTQVTVSS	high polyreactivity
